According to paper PMC5978004:

Molecular target: human MALT1 (mammalian expression) (human) (UniProt Q9UDY8)
UniProt Q9UDY8, sequence (Q9UDY8 whole entry): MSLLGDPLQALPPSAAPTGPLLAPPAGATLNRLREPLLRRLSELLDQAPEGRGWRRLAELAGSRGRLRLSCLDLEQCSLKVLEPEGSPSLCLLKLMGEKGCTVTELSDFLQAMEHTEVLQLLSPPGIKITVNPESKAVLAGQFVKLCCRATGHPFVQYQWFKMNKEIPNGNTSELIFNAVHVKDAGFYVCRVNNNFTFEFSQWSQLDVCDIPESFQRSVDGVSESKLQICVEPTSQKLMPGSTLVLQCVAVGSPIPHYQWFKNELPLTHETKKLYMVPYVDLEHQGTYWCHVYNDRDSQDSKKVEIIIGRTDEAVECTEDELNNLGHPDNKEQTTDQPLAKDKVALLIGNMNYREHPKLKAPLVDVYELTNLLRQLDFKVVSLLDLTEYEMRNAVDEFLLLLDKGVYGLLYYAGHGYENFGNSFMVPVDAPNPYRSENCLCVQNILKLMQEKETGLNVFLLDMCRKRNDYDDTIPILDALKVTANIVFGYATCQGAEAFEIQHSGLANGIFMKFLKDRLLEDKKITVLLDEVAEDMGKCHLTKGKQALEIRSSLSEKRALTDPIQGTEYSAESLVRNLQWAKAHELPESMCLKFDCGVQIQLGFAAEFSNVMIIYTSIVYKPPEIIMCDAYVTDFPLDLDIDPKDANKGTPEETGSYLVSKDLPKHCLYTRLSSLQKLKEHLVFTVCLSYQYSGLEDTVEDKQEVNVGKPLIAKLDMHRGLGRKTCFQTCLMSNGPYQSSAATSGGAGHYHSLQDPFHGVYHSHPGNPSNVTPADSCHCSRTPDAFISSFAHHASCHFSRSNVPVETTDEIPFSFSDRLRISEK

human MALT1-dependent NF-κB luciferase reporter induction in MALT1-deficient HEK293T cells with or without human MALT1: 2.5 fold
Substance: Nematostella vectensis Bcl10 (NvBcl10), E-tagged, in pCAGGS (natural protein)
